Assay [1] concerns the target T1, biotinylated human NKG2D (Example 3) (human, UniProt P26718 78-216, limits assumed, biotinylated (site not stated)).
T1 construct: also called recombinant biotinylated NKG2D; surface coated biotinylated human NKG2D
T1 sequence (looked up): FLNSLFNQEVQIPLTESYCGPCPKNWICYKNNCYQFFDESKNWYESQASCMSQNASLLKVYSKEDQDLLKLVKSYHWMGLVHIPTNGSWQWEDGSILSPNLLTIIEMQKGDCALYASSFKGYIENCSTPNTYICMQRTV
The experiment in a line: biolayer interferometry (Octet), biotinylated human NKG2D on the surface, 100 nM analyte. Background: In BLI a coated tip is dipped into the sample, and binding shifts an interference pattern.

The target in assay [2] is T1, biotinylated human NKG2D (Example 3). As to the kind of experiment: biolayer interferometry (Octet), Kd = kOFF/kON.
In another assay the target is T2, human NKG2D-Fc (human, UniProt P26718 78-216, limits assumed).
T2 construct: also called natural NKG2D-Fc; not shown: Fc part
T2 sequence (looked up): T1 sequence (looked up)
The experiment in a line: competition ELISA: inhibits 2 nM human NKG2D-Fc binding to plate-coated WT sMICA. (An ELISA detects its analyte on a solid surface through an enzyme-linked reagent.)

B1: WT α1-α2 soluble MICA protein (Example 3) (ligand)
chain: EPHSLRYNLTVLSWDGSVQSGFLTEVHLDGQPFLRCDRQKCRAKPQGQWAEDVLGNKTWDRETRDLTGNGKDLRMTLAHIKDQKEGLHSLQEIRVCEIHEDNSTRSSQHFYYDGELFLSQNLETKEWTMPQSSRAQTLAMNVRNFLKEDAMKTKTHYHAMHADCLQELRRYLKSGVVLRRTVPPMVQVTRSEASGGSGDRVTITCRASQDVSTAVAWYQQKPGKAPKLLIYSASFLYSGVPSRFSGSGSGTDFTLTISSLQPEDFATYYCQQSYTTPPTFGQGTKVEIKGGSSRSSSSGGGGSGGGGEVQLVESGGGLVQPGGSLRLSCAASGFTFTSTGISWVRQAPGKGLEWVGRIYPTNGSTNYADSVKGRFTISADTSKNTAYLQMNSLRAEDTAVYYCARTYGIYDLYVDYTEYVMDYWGQGTLVTVSSGGSSRSSSSGGGGSGGGGDIQMTQSPSSLSASGGSGQITVTCRASGFYPWNITLSWRQDGVSLSHDTQQWGDVLPDGQGTYQTWVATRISQGEEQRFTCYMEHSGQHSTHPVPSGKGSHHHHHH
notes: also called WT NKG2DL; WT MICA
In assay [1], B1 displayed a koff of 0.0018 s⁻¹ and an on-rate constant (kon) of 130000 M⁻¹ s⁻¹. For the same molecule, in assay [2], the affinity, expressed as Kd, was 13.8 nM. In the assay with human NKG2D-Fc, this molecule registered an IC50 of 19.4 nM.

The koff is a measure of how fast the partners let go of each other. Usually kon stands for the second-order rate constant of association. What is called Kd is the constant that tells how readily two partners part at equilibrium. A low value points to a tighter complex. A word on the IC50: it is the concentration that gives 50% inhibition. Low readings indicate greater potency in that assay, high ones weaker potency in that assay.

Source of the values: patent publication US20180134765A1 (AVIDBIOTICS, published 2018).
